Laboratory results as given in PMC8991199, “Promiscuity mapping of the S100 protein family using a high-throughput holdup assay” (Scientific Reports, 2022).

B1: S100A14 (natural protein)
chain: MGQCRSANAEDAQEFSDVERAIETLIKNFHQYSVEGGKETLTPSELRDLVTQQLPHLMPSNCGLEEKIANLGSCNDSKLEFRSFWELIGEAAKSVKLERPVRGH
B2: S100P (natural protein)
chain: MTELETAMGMIIDVFSRYSGSEGSTQTLTKGELKVLMEKELPGFLQSGKDKDAVDKLLKDLDANGDAQVDFSEFIVFVAAITSACHKYFEKAGLK
B3: S100Z (natural protein)
chain: MPTQLEMAMDTMIRIFHRYSGKERKRFKLSKGELKLLLQRELTEFLSCQKETQLVDKIVQDLDANKDNEVDFNEFVVMVAALTVACNDYFVEQLKKKGK
B4: S100G (natural protein)
chain: MSTKKSPEELKRIFEKYAAKEGDPDQLSKDELKLLIQAEFPSLLKGPNTLDDLFQELDKNGDGEVSFEEFQVLVKKISQ
B5: S100A12 (natural protein)
chain: MTKLEEHLEGIVNIFHQYSVRKGHFDTLSKGELKQLLTKELANTIKNIKDKAVIDEIFQGLDANQDEQVDFQEFISLVAIALKAAHYHTHKE
B6: S100A9 (natural protein)
chain: MTCKMSQLERNIETIINTFHQYSVKLGHPDTLNQGEFKELVRKDLQNFLKKENKNEKVIEHIMEDLDTNADKQLSFEEFIMLMARLTWASHEKMHEGDEGPGHHHKPGLGEGTP
B7: S100B (natural protein)
chain: MSELEKAMVALIDVFHQYSGREGDKHKLKKSELKELINNELSHFLEEIKEQEVVDKVMETLDNDGDGECDFQEFMAFVAMVTTACHEFFEHE
B8: S100A5 (natural protein)
chain: METPLEKALTTMVTTFHKYSGREGSKLTLSRKELKELIKKELCLGEMKESSIDDLMKSLDKNSDQEIDFKEYSVFLTMLCMAYNDFFLEDNK
B9: S100A11 (natural protein)
chain: MAKISSPTETERCIESLIAVFQKYAGKDGYNYTLSKTEFLSFMNTELAAFTKNQKDPGVLDRMMKKLDTNSDGQLDFSEFLNLIGGLAMACHDSFLKAVPSQKRT
B10: S100A3 (natural protein)
chain: MARPLEQAVAAIVCTFQEYAGRCGDKYKLCQAELKELLQKELATWTPTEFRECDYNKFMSVLDTNKDCEVDFVEYVRSLACLCLYCHEYFKDCPSEPPCSQ
B11: S100A8 (natural protein)
chain: MLTELEKALNSIIDVYHKYSLIKGNFHAVYRDDLKKLLETECPQYIRKKGADVWFKELDINTDGAVNFQEFLILVIKMGVAAHKKSHEESHKE
B12: S100A16 (natural protein)
chain: MSDCYTELEKAVIVLVENFYKYVSKYSLVKNKISKSSFREMLQKELNHMLSDTGNRKAADKLIQNLDANHDGRISFDEYWTLIGGITGPIAKLIHEQEQQSSS
B13: S100A13 (natural protein)
chain: MAAEPLTELEESIETVVTTFFTFARQEGRKDSLSVNEFKELVTQQLPHLLKDVGSLDEKMKSLDVNQDSELKFNEYWRLIGELAKEIRKKKDLKIRKK

Target: fIF, fluorescently labelled H14 foldamer IF
Experiment: fluorescence polarisation; direct FP: S100 protein diluted in 50 nM labeled foldamer, 20 mM HEPES pH 7.5, 150 mM NaCl, 1 mM CaCl2, 0.5 mM TCEP, 0.01% Tween20; quadratic fit (ProFit); detection threshold Kd 1 mM

Row | Kd | Binder
1 | > 1 mM | B1
2 | 0.14 mM | B2
3 | 0.48 mM | B3
4 | > 1 mM | B4
5 | 0.59 mM | B5
6 | > 1 mM | B6
7 | 0.14 mM | B7
8 | 0.027 mM | B8
9 | 0.28 mM | B9
10 | 0.18 mM | B10
11 | 0.75 mM | B11
12 | > 1 mM | B12
13 | > 1 mM | B13

Target: fIL, fluorescently labelled H14 foldamer IL
Experiment: as above

Row | Kd | Binder
14 | > 1 mM | B1
15 | 0.33 mM | B2
16 | > 1 mM | B3
17 | > 1 mM | B4
18 | > 1 mM | B5
19 | > 1 mM | B6
20 | 0.063 mM | B7
21 | 0.075 mM | B8
22 | > 1 mM | B9
23 | > 1 mM | B10
24 | > 1 mM | B11
25 | > 1 mM | B12
26 | > 1 mM | B13

Target: fRF, fluorescently labelled H14 foldamer RF
Experiment: as above

Row | Kd | Binder
27 | > 1 mM | B1
28 | 0.19 mM | B2
29 | 0.89 mM | B3
30 | > 1 mM | B4
31 | > 1 mM | B5
32 | > 1 mM | B6
33 | 0.23 mM | B7
34 | 0.046 mM | B8
35 | 1 mM | B9
36 | > 1 mM | B10
37 | > 1 mM | B11
38 | > 1 mM | B12
39 | > 1 mM | B13

Target: fRR, fluorescently labelled H14 foldamer RR
Experiment: as above

Row | Kd | Binder
40 | > 1 mM | B1
41 | > 1 mM | B2
42 | > 1 mM | B3
43 | > 1 mM | B4
44 | > 1 mM | B5
45 | > 1 mM | B6
46 | 0.21 mM | B7
47 | 0.045 mM | B8
48 | > 1 mM | B9
49 | > 1 mM | B10
50 | > 1 mM | B11
51 | > 1 mM | B12
52 | > 1 mM | B13

Target: fTI, fluorescently labelled H14 foldamer TI
Experiment: as above

Row | Kd | Binder
53 | > 1 mM | B1
54 | > 1 mM | B2
55 | > 1 mM | B3
56 | > 1 mM | B4
57 | > 1 mM | B5
58 | > 1 mM | B6
59 | > 1 mM | B7
60 | 0.27 mM | B8
61 | > 1 mM | B9
62 | > 1 mM | B10
63 | > 1 mM | B11
64 | > 1 mM | B12
65 | > 1 mM | B13

Target: fTM, fluorescently labelled H14 foldamer TM
Experiment: as above

Row | Kd | Binder
66 | > 1 mM | B1
67 | > 1 mM | B2
68 | > 1 mM | B3
69 | > 1 mM | B4
70 | > 1 mM | B5
71 | > 1 mM | B6
72 | > 1 mM | B7
73 | 0.2 mM | B8
74 | > 1 mM | B9
75 | > 1 mM | B10
76 | > 1 mM | B11
77 | > 1 mM | B12
78 | > 1 mM | B13

Target: fTW, fluorescently labelled H14 foldamer TW
Experiment: as above

Row | Kd | Binder
79 | > 1 mM | B1
80 | 0.17 mM | B2
81 | 0.52 mM | B3
82 | > 1 mM | B4
83 | > 1 mM | B5
84 | > 1 mM | B6
85 | 0.28 mM | B7
86 | 0.062 mM | B8
87 | 0.57 mM | B9
88 | > 1 mM | B10
89 | 0.77 mM | B11
90 | > 1 mM | B12
91 | > 1 mM | B13

Target: fVL, fluorescently labelled H14 foldamer VL
Experiment: as above

Row | Kd | Binder
92 | > 1 mM | B1
93 | > 1 mM | B2
94 | > 1 mM | B3
95 | > 1 mM | B4
96 | > 1 mM | B5
97 | > 1 mM | B6
98 | 0.05 mM | B7
99 | 0.11 mM | B8
100 | > 1 mM | B9
101 | > 1 mM | B10
102 | > 1 mM | B11
103 | > 1 mM | B12
104 | > 1 mM | B13

Target: fWL, fluorescently labelled H14 foldamer WL
Experiment: as above

Row | Kd | Binder
105 | > 1 mM | B1
106 | 0.075 mM | B2
107 | > 1 mM | B3
108 | > 1 mM | B4
109 | 0.25 mM | B5
110 | > 1 mM | B6
111 | 0.011 mM | B7
112 | 0.014 mM | B8
113 | > 1 mM | B9
114 | > 1 mM | B10
115 | 0.074 mM | B11
116 | 0.3 mM | B12
117 | > 1 mM | B13

Target: fWW, fluorescently labelled H14 foldamer WW
Experiment: as above

Row | Kd | Binder
118 | > 1 mM | B1
119 | 0.19 mM | B2
120 | > 1 mM | B3
121 | > 1 mM | B4
122 | > 1 mM | B5
123 | > 1 mM | B6
124 | > 1 mM | B7
125 | 0.077 mM | B8
126 | > 1 mM | B9
127 | 0.31 mM | B10
128 | > 1 mM | B11
129 | > 1 mM | B12
130 | > 1 mM | B13

Target: fYF, fluorescently labelled H14 foldamer YF
Experiment: as above

Row | Kd | Binder
131 | > 1 mM | B1
132 | 0.079 mM | B2
133 | > 1 mM | B3
134 | > 1 mM | B4
135 | > 1 mM | B5
136 | > 1 mM | B6
137 | 0.028 mM | B7
138 | 0.032 mM | B8
139 | > 1 mM | B9
140 | > 1 mM | B10
141 | 0.18 mM | B11
142 | > 1 mM | B12
143 | > 1 mM | B13
